How the values were obtained:
[1] = tested on: Leucine aminopeptidase, microsomal + Carboxypeptidase Y; experiment: Reactivity of peptidase formulations against synthetic peptides: LM + carboxypeptidase Y; type: biochemical; conditions: phosphate buffer pH 5.3, 37° C. 3 hours, HPLC
Protocol: (§1) Peptides shown in Table 1 were chemically synthesized. […] All of these synthetic peptides were synthesized with the automatic peptide synthesizing machine PPSM-8 (manufactured by Shimadzu Corporation).
(§2) Each synthetic peptide was dissolved at the concentration of 10 μg/ml in 100 mM phosphate buffer pH 5.3 as to Experiments 1-1 to 1-4, 1-10 to 1-12, 1-16 and 1-21, or in 50 mM Tris-HCl buffer pH 8.0 as to other Experiments. Each of various peptidase formulations shown in Table 1 was then added so that the concentration thereof became 0.01 μg/ml, and the reaction was performed at 37° C. for 3 hours. After the enzyme reaction, the mixture was analyzed by the reverse phase high performance liquid chromatography (HPLC). […] The fractions of the detected peak were collected and amino acid sequence analysis was performed by the automatic peptide analyzer model PPSQ-10 (manufactured by Shimadzu Corporation). […]

[2] = tested on: Leucine aminopeptidase, cytosol + Carboxypeptidase Y; experiment: Reactivity of peptidase formulations against synthetic peptides: LC + carboxypeptidase Y; type: biochemical; conditions: phosphate buffer pH 5.3, 37° C. 3 hours, HPLC
Protocol: as §1, §2

[3] = tested on: Aminopeptidase + Carboxypeptidase Y; experiment: Reactivity of peptidase formulations against synthetic peptides: aminopeptidase A + carboxypeptidase Y; type: biochemical; conditions: 0.01 μg/ml, peptide 10 μg/ml, phosphate buffer pH 5.3, 37° C. 3 hours, HPLC
Protocol: as §1, §2

[4] = tested on: Aminipeptidase I + Carboxypeptidase Y; experiment: Reactivity of peptidase formulations against synthetic peptides: aminopeptidase I + carboxypeptidase Y; type: biochemical; conditions: phosphate buffer pH 5.3, 37° C. 3 hours, HPLC
Protocol: as §1, §2

Aminopeptidase = experiment: Reactivity of peptidase formulations against synthetic peptides: aminopeptidase A alone; type: biochemical; conditions: no carboxypeptidase, Tris-HCl pH 8.0, 37° C. 3 hours, HPLC
Protocol: as §1, §2

Aminipeptidase I = target: T1, Aminipeptidase I (Streptomyces griseus subsp. griseus, UniProt P80561); experiment: Reactivity of peptidase formulations against synthetic peptides: aminopeptidase I alone; type: biochemical; conditions: no carboxypeptidase, Tris-HCl pH 8.0, 37° C. 3 hours, HPLC
T1 construct: purchased Sigma Chemical Co
Protocol: as §1, §2

[5] = target: T2, Leucine aminopeptidase, cytosol (Sus scrofa, UniProt P28839); experiment: Reactivity of peptidase formulations against synthetic peptides: LC alone; type: biochemical, porcine; conditions: no carboxypeptidase, Tris-HCl pH 8.0, 37° C. 3 hours, HPLC
T2 construct: purchased Sigma Chemical Co; host or cells: porcine kidney
T2 sequence (P28839 1-519): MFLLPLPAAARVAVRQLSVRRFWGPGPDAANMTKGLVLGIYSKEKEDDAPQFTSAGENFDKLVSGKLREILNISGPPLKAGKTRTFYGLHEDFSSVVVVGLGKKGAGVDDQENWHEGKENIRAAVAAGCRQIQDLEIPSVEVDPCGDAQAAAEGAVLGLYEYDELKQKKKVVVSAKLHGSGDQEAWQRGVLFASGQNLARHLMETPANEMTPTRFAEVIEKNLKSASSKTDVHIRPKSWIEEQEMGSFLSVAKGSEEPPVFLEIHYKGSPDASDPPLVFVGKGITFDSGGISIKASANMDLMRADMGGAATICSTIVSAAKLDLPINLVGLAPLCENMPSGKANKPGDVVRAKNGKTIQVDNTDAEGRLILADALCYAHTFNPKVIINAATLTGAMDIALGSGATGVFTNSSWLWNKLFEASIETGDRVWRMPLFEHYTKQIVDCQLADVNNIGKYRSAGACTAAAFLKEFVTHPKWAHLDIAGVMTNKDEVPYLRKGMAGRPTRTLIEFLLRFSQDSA
Protocol: as §1, §2

[6] = target: T3, Leucine aminopeptidase, microsomal (Sus scrofa, UniProt P15145); experiment: Reactivity of peptidase formulations against synthetic peptides: LM alone; type: biochemical, porcine; conditions: no carboxypeptidase, Tris-HCl pH 8.0, 37° C. 3 hours, HPLC
T3 construct: purchased Sigma Chemical Co; host or cells: porcine kidney
T3 sequence (P15145 1-963): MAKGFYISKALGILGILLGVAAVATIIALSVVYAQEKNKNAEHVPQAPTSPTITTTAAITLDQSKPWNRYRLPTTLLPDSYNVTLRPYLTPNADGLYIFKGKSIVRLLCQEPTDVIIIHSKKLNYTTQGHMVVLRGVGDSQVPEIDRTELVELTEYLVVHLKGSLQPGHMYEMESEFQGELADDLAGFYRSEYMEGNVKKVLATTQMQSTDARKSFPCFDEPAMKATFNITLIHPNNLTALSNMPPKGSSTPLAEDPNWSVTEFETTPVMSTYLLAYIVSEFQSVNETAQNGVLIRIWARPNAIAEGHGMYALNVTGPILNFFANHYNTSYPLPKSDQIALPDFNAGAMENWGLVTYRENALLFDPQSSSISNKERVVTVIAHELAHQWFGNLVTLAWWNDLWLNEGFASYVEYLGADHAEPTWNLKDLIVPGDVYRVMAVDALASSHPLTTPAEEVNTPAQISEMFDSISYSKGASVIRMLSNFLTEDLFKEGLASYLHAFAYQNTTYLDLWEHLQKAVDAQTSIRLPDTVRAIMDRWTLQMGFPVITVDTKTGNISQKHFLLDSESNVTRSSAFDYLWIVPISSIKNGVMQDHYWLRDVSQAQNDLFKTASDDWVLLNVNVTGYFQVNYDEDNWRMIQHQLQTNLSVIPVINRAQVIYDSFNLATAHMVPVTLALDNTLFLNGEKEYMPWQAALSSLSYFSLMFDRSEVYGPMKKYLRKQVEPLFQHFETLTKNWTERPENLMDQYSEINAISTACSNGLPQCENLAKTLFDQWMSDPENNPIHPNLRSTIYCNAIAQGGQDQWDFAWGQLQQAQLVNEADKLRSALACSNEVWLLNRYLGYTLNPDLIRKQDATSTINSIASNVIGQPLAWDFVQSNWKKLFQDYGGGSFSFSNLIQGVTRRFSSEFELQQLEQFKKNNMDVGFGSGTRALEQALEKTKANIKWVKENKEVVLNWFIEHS
Protocol: as §1, §2

[7] = tested on: synthetic peptide consisting of the 28 amino acids (SEQ ID NO: 28); experiment: Two step reaction of proteinase and fraction 4 on the 28 amino acid synthetic peptide; type: biochemical; conditions: proteinase 0.1 μg/ml on 28-mer 10 μg/ml, pH 6.1, 37° C. 5 hours, heat inactivation, then fraction 4, HPLC
Protocol: To 10 μg/ml of the synthetic peptide consisting of the 28 amino acids that is the same as the one used in Experiment 2 (in 100 mM phosphate buffer pH 6.1), each of the commercially available proteinase enzymes for food processing shown in Table 4 was added at 0.1 μg/ml. The mixture was reacted at 37° C. for 5 hours. After finishing the reaction, the reacted liquid was heated at 100° C. for 5 minutes for inactivating the proteinase, and then reacted with the fraction 4 obtained in Experiment 4.

[8] = tested on: synthetic peptide consisting of 28 amino acids (SEQ ID NO: 28); experiment: Production of the intermediate peptides with proteinase from the 28 amino acid synthetic peptide; type: biochemical; conditions: enzyme 0.1 μg/ml, 28-mer 10 μg/ml, phosphate buffer pH 6.1, 37° C. 5 hours; HPLC and sequence analysis
Excerpt: A peptide consisting of 28 amino acids and having a sequence identical with a part of casein sequence and containing the sequence Ile-Pro-Pro and Val-Pro-Pro therein was chemically synthesized by the automatic peptide synthesizer model […]. The sequence of the peptide synthesized is as follows: […](SEQ ID NO: 28)
This synthetic peptide was reacted with various commercially available proteinase formulations, seeking for a proteinase capable of producing a peptide containing the sequence Ile-Pro-Pro or Val-Pro-Pro therein but containing no Pro other than these sequences.
That is, 0.1 μg/ml of each enzyme was added to 10 μg/ml of the synthetic peptide (in 100 mM phosphate buffer pH 6.1). The mixture was reacted at 37° C. for 5 hours to obtain a reacted liquid. The reacted liquid was analyzed by the reverse phase high performance liquid chromatography (HPLC). The fractions of the detected peptide peaks were collected and amino acid sequence analysis was performed by the automatic peptide analyzer model PPSQ-10.

T1 sequence (P80561 46-329): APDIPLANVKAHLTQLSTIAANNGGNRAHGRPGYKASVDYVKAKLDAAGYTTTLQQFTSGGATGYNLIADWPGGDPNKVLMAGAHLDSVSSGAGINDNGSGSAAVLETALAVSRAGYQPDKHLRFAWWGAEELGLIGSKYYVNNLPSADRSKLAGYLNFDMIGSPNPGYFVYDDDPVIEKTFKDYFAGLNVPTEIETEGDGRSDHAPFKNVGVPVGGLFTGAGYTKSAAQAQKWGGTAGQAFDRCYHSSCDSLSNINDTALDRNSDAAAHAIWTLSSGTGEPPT

## Asn Ile Pro Pro Leu (NIPPL)
[1]
  Existence of IPP or VPP peaks: IPP
[2]
  Existence of IPP or VPP peaks: IPP
[3]
  Existence of IPP or VPP peaks: IPP
[4]
  Existence of IPP or VPP peaks: IPP

## Val Val Pro Pro (VVPP)
Aminopeptidase
  Existence of IPP or VPP peaks: VPP
Aminipeptidase I
  Existence of IPP or VPP peaks: VPP
[5]
  Existence of IPP or VPP peaks: VPP
[6]
  Existence of IPP or VPP peaks: VPP

B1: Papain: proteinase, Papaya Latex, Sigma Chemical Co. (protein, UniProt P00784 134-345, looked up)
Papain: IPEYVDWRQKGAVTPVKNQGSCGSCWAFSAVVTIEGIIKIRTGNLNEYSEQELLDCDRRSYGCNGGYPWSALQLVAQYGIHYRNTYPYEGVQRYCRSREKGPYAAKTDGVRQVQPYNEGALLYSIANQPVSVVLEAAGKDFQLYRGGIFVGPCGNKVDHAVAAVGYGPNYILIKNSWGTGWGENGYIRIKRGTGNSYGVCGLYTSSFYPVKN
[7]
  Production of the tripeptides Ile-Pro-Pro and Val-Pro-Pro: Yes
[7]; listed as papain
  Production of the tripeptides Ile-Pro-Pro and Val-Pro-Pro: can produce the tripeptides Ile-Pro-Pro and Val-Pro-Pro
[8]
  Peptides produced in the reaction mixture: a peptide Val-Pro-Pro-Phe-Leu as the peptide containing the sequence Val-Pro-Pro, and peptides Asn-Ile-Pro-Pro-Leu-Thr and Ile-Pro-Pro-Leu-Thr
